Laboratory results reported in IntAct's records for PubMed 19966221.

B1: mRNA-decapping enzyme 1A (Homo sapiens), Q9NPI6 (parent)
chain: MEALSRAGQEMSLAALKQHDPYITSIADLTGQVALYTFCPKANQWEKTDIEGTLFVYRRSASPYHGFTIVNRLNMHNLVEPVNKDLEFQLHEPFLLYRNASLSIYSIWFYDKNDCHRIAKLMADVVEEETRRSQQAARDKQSPSQANGCSDHRPIDILEMLSRAKDEYERNQMGDSNISSPGLQPSTQLSNLGSTETLEEMPSGSQDKSAPSGHKHLTVEELFGTSLPKEQPAVVGLDSEEMERLPGDASQKEPNSFLPFPFEQLGGAPQSETLGVPSAAHHSVQPEITTPVLITPASITQSNEKHAPTYTIPLSPVLSPTLPAEAPTAQVPPSLPRNSTMMQAVKTTPRQRSPLLNQPVPELSHASLIANQSPFRAPLNVTNTAGTSLPSVDLLQKLRLTPQHDQIQTQPLGKGAMVASFSPAAGQLATPESFIEPPSKTAAARVAASASLSNMVLAPLQSMQQNQDPEVFVQPKVLSSAIPVAGAPLVTATTTAVSSVLLAPSVFQQTVTRSSDLERKASSPSPLTIGTPESQRKPSIILSKSQLQDTLIHLIKNDSSFLSTLHEVYLQVLTKNKDNHNL
B2: mRNA-decapping enzyme 1A (Homo sapiens), Q9NPI6 (parent)
chain: B1 chain
partner: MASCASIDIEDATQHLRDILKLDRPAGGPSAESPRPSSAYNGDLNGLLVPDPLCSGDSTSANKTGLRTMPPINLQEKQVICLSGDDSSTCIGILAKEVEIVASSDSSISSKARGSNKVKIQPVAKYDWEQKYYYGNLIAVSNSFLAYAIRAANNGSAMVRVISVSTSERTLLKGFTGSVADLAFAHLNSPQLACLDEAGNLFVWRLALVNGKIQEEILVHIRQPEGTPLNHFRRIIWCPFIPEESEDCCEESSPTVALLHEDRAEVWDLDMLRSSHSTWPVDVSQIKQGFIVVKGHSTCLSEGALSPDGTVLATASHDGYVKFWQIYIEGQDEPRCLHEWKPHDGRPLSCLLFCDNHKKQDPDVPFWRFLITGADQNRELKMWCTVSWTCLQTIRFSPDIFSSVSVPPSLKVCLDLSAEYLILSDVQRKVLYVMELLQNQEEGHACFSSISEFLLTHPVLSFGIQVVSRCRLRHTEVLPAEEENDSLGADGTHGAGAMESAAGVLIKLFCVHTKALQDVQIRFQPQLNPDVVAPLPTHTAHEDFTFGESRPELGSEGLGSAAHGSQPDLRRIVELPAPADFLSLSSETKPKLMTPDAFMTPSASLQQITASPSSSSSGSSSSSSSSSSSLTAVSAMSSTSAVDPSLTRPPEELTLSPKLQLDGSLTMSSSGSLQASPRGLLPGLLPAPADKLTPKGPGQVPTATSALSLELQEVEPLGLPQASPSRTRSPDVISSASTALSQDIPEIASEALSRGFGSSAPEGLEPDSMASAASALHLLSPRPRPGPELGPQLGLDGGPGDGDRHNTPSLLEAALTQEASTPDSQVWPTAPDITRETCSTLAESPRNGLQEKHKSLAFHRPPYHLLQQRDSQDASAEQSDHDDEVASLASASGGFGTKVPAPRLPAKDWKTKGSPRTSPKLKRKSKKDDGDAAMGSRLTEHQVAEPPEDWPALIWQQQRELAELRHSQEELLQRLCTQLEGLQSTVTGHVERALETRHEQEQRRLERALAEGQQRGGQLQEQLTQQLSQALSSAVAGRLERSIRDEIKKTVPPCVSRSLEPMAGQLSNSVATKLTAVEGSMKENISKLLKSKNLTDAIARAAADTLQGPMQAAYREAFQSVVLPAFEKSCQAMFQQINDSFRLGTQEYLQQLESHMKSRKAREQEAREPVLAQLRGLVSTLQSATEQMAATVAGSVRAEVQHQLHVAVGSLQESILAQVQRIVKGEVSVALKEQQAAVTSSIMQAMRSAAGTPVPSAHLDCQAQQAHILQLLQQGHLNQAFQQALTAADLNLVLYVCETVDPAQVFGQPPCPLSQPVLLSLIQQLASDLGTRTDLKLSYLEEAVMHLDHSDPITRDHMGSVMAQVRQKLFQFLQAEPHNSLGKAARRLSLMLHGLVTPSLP

Variants of: B1
Conditions: with dcp2_human DCP2, Q8IU60

Effect of a mutation on the interaction, disrupting interaction:
MEALSRAGQEMSLAALKQHDPYITSIADLTGQVALYTFCPKANQWEKTDIEGTLFVYRRSASPYHGFTIVNRLNMHNLVEPVNKDLEFQLHEPFLLYRNASLSIYSIWFYDKNDCHRIAKLMADVVEEETRRSQQAARDKQSPSQANGCSDHRPIDILEMLSRAKDEYERNQMGDSNISSPGLQPSTQLSNLGSTETLEEMPSGSQDKSAPSGHKHLTVEELFGTSLPKEQPAVVGLDSEEMERLPGDASQKEPNSFLPFPFEQLGGAPQSETLGVPSAAHHSVQPEITTPVLITPASITQSNEKHAPTYTIPLSPVLSPTLPAEAPTAQVPPSLPRNSTMMQAVKTTPRQRSPLLNQPVPELSHASLIANQSPFRAPLNVTNTAGTSLPSVDLLQKLRLTPQHDQIQTQPLGKGAMVASFSPAAGQLATPESFIEPPSKTAAARVAASASLSNMVLAPLQSMQQNQDPEVFVQPKVLSSAIPVAGAPLVTATTTAVSSVLLAPSVFQQTVTRSSDLERKASSPSPLTIGTPESQRKPSIILSKSQLQDTLSHLRKNDSSFESTLHEVYLQVLTKNKDNHNL [I552S;I555R;L562E]
MEALSRAGQEMSLAALKQHDPYITSIADLTGQVALYTFCPKANQWEKTDIEGTLFVYRRSASPYHGFTIVNRLNMHNLVEPVNKDLEFQLHEPFLLYRNASLSIYSIWFYDKNDCHRIAKLMADVVEEETRRSQQAARDKQSPSQANGCSDHRPIDILEMLSRAKDEYERNQMGDSNISSPGLQPSTQLSNLGSTETLEEMPSGSQDKSAPSGHKHLTVEELFGTSLPKEQPAVVGLDSEEMERLPGDASQKEPNSFLPFPFEQLGGAPQSETLGVPSAAHHSVQPEITTPVLITPASITQSNEKHAPTYTIPLSPVLSPTLPAEAPTAQVPPSLPRNSTMMQAVKTTPRQRSPLLNQPVPELSHASLIANQSPFRAPLNVTNTAGTSLPSVDLLQKLRLTPQHDQIQTQPLGKGAMVASFSPAAGQLATPESFIEPPSKTAAARVAASASLSNMVLAPLQSMQQNQDPEVFVQPKVLSSAIPVAGAPLVTATTTAVSSVLLAPSVFQQTVTRSSDLERKASSPSPLTIGTPESQRKPSIILSKSQLQDTLIHSIKNDSSRLSTSHEVYLQVLTKNKDNHNL [L554S;F561R;L565S]
MEALSRAGQEMSLAALKQHDPYITSIADLTGQVALYTFCPKANQWEKTDIEGTLFVYRRSASPYHGFTIVNRLNMHNLVEPVNKDLEFQLHEPFLLYRNASLSIYSIWFYDKNDCHRIAKLMADVVEEETRRSQQAARDKQSPSQANGCSDHRPIDILEMLSRAKDEYERNQMGDSNISSPGLQPSTQLSNLGSTETLEEMPSGSQDKSAPSGHKHLTVEELFGTSLPKEQPAVVGLDSEEMERLPGDASQKEPNSFLPFPFEQLGGAPQSETLGVPSAAHHSVQPEITTPVLITPASITQSNEKHAPTYTIPLSPVLSPTLPAEAPTAQVPPSLPRNSTMMQAVKTTPRQRSPLLNQPVPELSHASLIANQSPFRAPLNVTNTAGTSLPSVDLLQKLRLTPQHDQIQTQPLGKGAMVASFSPAAGQLATPESFIEPPSKTAAARVAASASLSNMVLAPLQSMQQNQDPEVFVQPKVLSSAIPVAGAPLVTATTTAVSSVLLAPSVFQQTVTRSSDLERKASSPSPLTIGTPESQRKPSIILSKSQLQDTRIHLSKNDSSRLSTSHEVYLQVLTKNKDNHNL [L551R;I555S;F561R;L565S]

Variants of: B2
Conditions: with edc4_human EDC4, Q6P2E9

Effect of a mutation on the interaction, disrupting interaction:
MEALSRAGQEMSLAALKQHDPYITSIADLTGQVALYTFCPKANQWEKTDIEGTLFVYRRSASPYHGFTIVNRLNMHNLVEPVNKDLEFQLHEPFLLYRNASLSIYSIWFYDKNDCHRIAKLMADVVEEETRRSQQAARDKQSPSQANGCSDHRPIDILEMLSRAKDEYERNQMGDSNISSPGLQPSTQLSNLGSTETLEEMPSGSQDKSAPSGHKHLTVEELFGTSLPKEQPAVVGLDSEEMERLPGDASQKEPNSFLPFPFEQLGGAPQSETLGVPSAAHHSVQPEITTPVLITPASITQSNEKHAPTYTIPLSPVLSPTLPAEAPTAQVPPSLPRNSTMMQAVKTTPRQRSPLLNQPVPELSHASLIANQSPFRAPLNVTNTAGTSLPSVDLLQKLRLTPQHDQIQTQPLGKGAMVASFSPAAGQLATPESFIEPPSKTAAARVAASASLSNMVLAPLQSMQQNQDPEVFVQPKVLSSAIPVAGAPLVTATTTAVSSVLLAPSVFQQTVTRSSDLERKASSPSPLTIGTPESQRKPSIILSKSQLQDTLSHLRKNDSSFESTLHEVYLQVLTKNKDNHNL [I552S;I555R;L562E]
MEALSRAGQEMSLAALKQHDPYITSIADLTGQVALYTFCPKANQWEKTDIEGTLFVYRRSASPYHGFTIVNRLNMHNLVEPVNKDLEFQLHEPFLLYRNASLSIYSIWFYDKNDCHRIAKLMADVVEEETRRSQQAARDKQSPSQANGCSDHRPIDILEMLSRAKDEYERNQMGDSNISSPGLQPSTQLSNLGSTETLEEMPSGSQDKSAPSGHKHLTVEELFGTSLPKEQPAVVGLDSEEMERLPGDASQKEPNSFLPFPFEQLGGAPQSETLGVPSAAHHSVQPEITTPVLITPASITQSNEKHAPTYTIPLSPVLSPTLPAEAPTAQVPPSLPRNSTMMQAVKTTPRQRSPLLNQPVPELSHASLIANQSPFRAPLNVTNTAGTSLPSVDLLQKLRLTPQHDQIQTQPLGKGAMVASFSPAAGQLATPESFIEPPSKTAAARVAASASLSNMVLAPLQSMQQNQDPEVFVQPKVLSSAIPVAGAPLVTATTTAVSSVLLAPSVFQQTVTRSSDLERKASSPSPLTIGTPESQRKPSIILSKSQLQDTLIHSIKNDSSRLSTSHEVYLQVLTKNKDNHNL [L554S;F561R;L565S]
MEALSRAGQEMSLAALKQHDPYITSIADLTGQVALYTFCPKANQWEKTDIEGTLFVYRRSASPYHGFTIVNRLNMHNLVEPVNKDLEFQLHEPFLLYRNASLSIYSIWFYDKNDCHRIAKLMADVVEEETRRSQQAARDKQSPSQANGCSDHRPIDILEMLSRAKDEYERNQMGDSNISSPGLQPSTQLSNLGSTETLEEMPSGSQDKSAPSGHKHLTVEELFGTSLPKEQPAVVGLDSEEMERLPGDASQKEPNSFLPFPFEQLGGAPQSETLGVPSAAHHSVQPEITTPVLITPASITQSNEKHAPTYTIPLSPVLSPTLPAEAPTAQVPPSLPRNSTMMQAVKTTPRQRSPLLNQPVPELSHASLIANQSPFRAPLNVTNTAGTSLPSVDLLQKLRLTPQHDQIQTQPLGKGAMVASFSPAAGQLATPESFIEPPSKTAAARVAASASLSNMVLAPLQSMQQNQDPEVFVQPKVLSSAIPVAGAPLVTATTTAVSSVLLAPSVFQQTVTRSSDLERKASSPSPLTIGTPESQRKPSIILSKSQLQDTRIHLSKNDSSRLSTSHEVYLQVLTKNKDNHNL [L551R;I555S;F561R;L565S]
